Laboratory results as given in patent US11833164B2, “Methods of treating Fabry disease in patients having a mutation in the GLA gene” (Amicus Therapeutics, Inc., priority 2019, dated 2023).
Numbering of substitutions follows the chain as printed. Names may count otherwise.

B1: Q312E (protein)
chain: MQLRNPELHLGCALALRFLALVSWDIPGARALDNGLARTPTMGWLHWERFMCNLDCQEEPDSCISEKLFMEMAELMVSEGWKDAGYEYLCIDDCWMAPQRDSEGRLQADPQRFPHGIRQLANYVHSKGLKLGIYADVGNKTCAGFPGSFGYYDIDAQTFADWGVDLLKFDGCYCDSLENLADGYKHMSLALNRTGRSIVYSCEWPLYMWPFQKPNYTEIRQYCNHWRNFADIDDSWKSIKSILDWTSFNQERIVDVAGPGGWNDPDMLVIGNFGLSWNQQVTQMALWAIMAAPLFMSNDLRHISPQAKALLEDKDVIAINQDPLGKQGYQLRQGDNFEVWERPLSGLAWAVAMINRQEIGGPRSYTIAVASLGKGVACNPACFITQLLPVKRKLGFYEWTSRLRSHINPTGTVLLQLENTMQMSLKDLL
B2: D315A (protein)
chain: B1 chain with E312Q, D315A
B3: D315Y (protein)
chain: B1 chain with E312Q, D315Y
B4: D313V (protein)
chain: B1 chain with E312Q, D313V
B5: Q312K (protein)
chain: B1 chain with E312K
B6: V316A (protein)
chain: B1 chain with E312Q, V316A
B7: D315V (protein)
chain: B1 chain with E312Q, D315V
B8: I317L (protein)
chain: B1 chain with E312Q, I317L
B9: K314E (protein)
chain: B1 chain with E312Q, K314E
B10: D315N (protein)
chain: B1 chain with E312Q, D315N
B11: K314N (protein)
chain: B1 chain with E312Q, K314N
B12: K314M (protein)
chain: B1 chain with E312Q, K314M
B13: D315H (protein)
chain: B1 chain with E312Q, D315H
B14: D313E (protein)
chain: B1 chain with E312Q, D313E
B15: Q312L (protein)
chain: B1 chain with E312L
B16: D315G (protein)
chain: B1 chain with E312Q, D315G
B17: K314T (protein)
chain: B1 chain with E312Q, K314T
B18: V316L (protein)
chain: B1 chain with E312Q, V316L

test system: mutant form of α-Gal A expressed in HEK-293 cells; test: HEK assay (GLP HEK / Migalastat Amenability Assay): α-Gal A activity in lysates of transiently transfected HEK-293 cells incubated with or without 10 μM migalastat; format: cell-based, human; details: 10 μM migalastat versus baseline
How it was run: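 Activity reported as 4-MU released (nmol/mg/hr), mean±SEM, from lysates of transiently transfected HEK-293 cells expressing mutant α-Gal A, cultured with or without 10 μM migalastat.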

In order of rising “Absolute increase (% WT)” value:
1. B4  6.7 % WT
2. B11  10.8 % WT
3. B9  11.0 % WT
4. B14  13.2 % WT
5. B3  14.2 % WT
6. B1  15.1 % WT
7. B5  15.5 % WT
8. B12  15.9 % WT
9. B8  16.5 % WT
10. B13  17.4 % WT
11. B10  17.9 % WT
12. B17  17.9 % WT
13. B15  21.3 % WT
14. B6  22.7 % WT
15. B16  23.6 % WT
16. B7  24.8 % WT
17. B2  25.1 % WT
18. B18  33.9 % WT

In order of falling Relative increase:
1. B1  4.6
2. B4  3.9
3. B5  1.8
4. B7  1.8
5. B18  1.7
6. B10  1.5
7. B3  1.4
8. B6  1.4
9. B13  1.4
10. B15  1.4
11. B16  1.4
12. B2  1.3
13. B8  1.3
14. B9  1.3
15. B12  1.3
16. B14  1.3
17. B11  1.2
18. B17  1.2

same assay, conditions: absence of migalastat; percentage of baseline wild-type α-Gal A activity; mean ± SEM

In order of rising “Baseline α-Gal A activity (% WT)” value:
1. B4  2.9 ± 0.2 % WT
2. B1  4.1 ± 0.2 % WT
3. B5  19.7 ± 1.4 % WT
4. B7  31.2 ± 3.6 % WT
5. B10  34.1 ± 1.7 % WT
6. B3  34.5 ± 3.5 % WT
7. B13  35.7 ± 2.8 % WT
8. B9  37.7 ± 2.5 % WT
9. B11  39.1 ± 3.4 % WT
10. B14  42.5 ± 2.3 % WT
11. B18  47.4 ± 3.9 % WT
12. B6  48.8 ± 4.1 % WT
13. B16  49.7 ± 3.7 % WT
14. B15  50.1 ± 4.1 % WT
15. B12  50.9 ± 3.8 % WT
16. B8  54.4 ± 4.9 % WT
17. B2  68.3 ± 4.8 % WT
18. B17  75.9 ± 4.4 % WT

same assay, conditions: lysates of HEK-293 cells transiently transfected with the mutant form, incubated 5 days in absence of migalastat; mean ± SEM

In order of falling “Baseline α-Gal A activity” value:
1. B17  25162 ± 2701 nmol/mg/h
2. B2  18519 ± 1370 nmol/mg/h
3. B12  18231 ± 2878 nmol/mg/h
4. B15  16986 ± 1428 nmol/mg/h
5. B8  14780 ± 1222 nmol/mg/h
6. B14  14321 ± 1579 nmol/mg/h
7. B11  14205 ± 2418 nmol/mg/h
8. B16  13326 ± 859 nmol/mg/h
9. B6  13166 ± 1029 nmol/mg/h
10. B9  13026 ± 1767 nmol/mg/h
11. B18  12854 ± 958 nmol/mg/h
12. B13  9791 ± 1077 nmol/mg/h
13. B3  9198 ± 1179 nmol/mg/h
14. B10  8553 ± 425 nmol/mg/h
15. B7  8191 ± 717 nmol/mg/h
16. B5  6733 ± 510 nmol/mg/h
17. B1  1365 ± 57 nmol/mg/h
18. B4  894 ± 33 nmol/mg/h

same assay, conditions: lysates of HEK-293 cells transiently transfected with the mutant form, incubated 5 days with 10 μM migalastat; mean ± SEM

In order of falling “10 μM migalastat α-Gal A activity” value:
1. B17  30501 ± 2332 nmol/mg/h
2. B2  24758 ± 1512 nmol/mg/h
3. B15  23967 ± 1400 nmol/mg/h
4. B12  23043 ± 2838 nmol/mg/h
5. B18  21812 ± 1450 nmol/mg/h
6. B16  19115 ± 1697 nmol/mg/h
7. B6  18908 ± 1577 nmol/mg/h
8. B8  18770 ± 1141 nmol/mg/h
9. B14  18273 ± 1330 nmol/mg/h
10. B11  17364 ± 2225 nmol/mg/h
11. B9  16765 ± 2098 nmol/mg/h
12. B7  14580 ± 1235 nmol/mg/h
13. B13  14136 ± 1573 nmol/mg/h
14. B10  13037 ± 869 nmol/mg/h
15. B3  12674 ± 1008 nmol/mg/h
16. B5  11934 ± 624 nmol/mg/h
17. B1  6331 ± 466 nmol/mg/h
18. B4  3480 ± 580 nmol/mg/h

same assay, conditions: with 10 μM migalastat, 5 days; percentage of baseline wild-type α-Gal A activity; mean ± SEM

In order of rising “10 μM migalastat α-Gal A activity (% WT)” value:
1. B4  9.6 ± 0.9 % WT
2. B1  19.2 ± 1.7 % WT
3. B5  35.2 ± 1.8 % WT
4. B3  48.7 ± 2.4 % WT
5. B9  48.7 ± 2.8 % WT
6. B11  49.9 ± 2.6 % WT
7. B10  52.1 ± 3.7 % WT
8. B13  53.2 ± 5.5 % WT
9. B14  55.7 ± 1.9 % WT
10. B7  56 ± 6 % WT
11. B12  66.8 ± 3.8 % WT
12. B8  70.9 ± 5.6 % WT
13. B6  71.5 ± 7.1 % WT
14. B15  71.5 ± 4.6 % WT
15. B16  73.3 ± 8 % WT
16. B18  81.3 ± 6.3 % WT
17. B2  93.4 ± 7 % WT
18. B17  93.8 ± 4.5 % WT
